T1: MAGE-B5 peptide on HLA-A*02:01 (human)
T1 peptide: KVLEYLAKV

T2: MAGE-B16 peptide on HLA-A*02:01 (human)
T2 peptide: KVLEFVAKV

T3: MAGE-A1 peptide on HLA-A*02:01 (human)
T3 peptide: KVLEYVIKV


Experiments:
[1] = molecular target: T1, MAGE-B5 peptide on HLA-A*02:01; assay: cytokine release
Experimental: (§1) FIG. 18 T2 cells were loaded with 10-5 mol/l MAGE-A1278 (SEQ ID NO: 11) or the 2 most similar epitopes in the human proteome (MAGE-B16 and MAGE-B5, SEQ ID NOs: 54 and 55, respectively) differing in only 2 amino acids from MAGE-A1278 and co-cultured with TCR modified T cells. Functional response was assessed based on IFNγ production.

[2] = molecular target: T2, MAGE-B16 peptide on HLA-A*02:01; assay: cytokine release
Experimental: as §1

[3] = molecular target: T3, MAGE-A1 peptide on HLA-A*02:01; assay: multimer staining

| binding result [1] | binding result [2] | binding result [3] | Binder |
| --- | --- | --- | --- |
| no recognition | no recognition | recognises | TCR 1405 (TCR, V domains shown) Valpha: GENVEQHPSTLSVQEGDSAVIKCTYSDSASNYFPWYKQELGKGPQLIIDIRSNVGEKKDQRIAVTLNKTAKHFSLHITETQPEDSAVYFCAARPNSGNTPLVFGKGTRLSVIA Vbeta: SAVISQKPSRDICQRGTSLTIQCQVDSQVTMMFWYRQQPGQSLTLIATANQGSEATYESGFVIDKFPISRPNLTFSTLTVSNMSPEDSSIYLCSVEQDTNTGELFFGEGSRLTVL |
| no recognition | no recognition | recognises | TCR 1367 (TCR, V domains shown) Valpha: GEDVEQSLFLSVREGDSSVINCTYTDSSSTYLYWYKQEPGAGLQLLTYIFSNMDMKQDQRLTVLLNKKDKHLSLRIADTQTGDSAIYFCAESIGSNSGYALNFGKGTSLLVTP Vbeta: DVKVTQSSRYLVKRTGEKVFLECVQDMDHENMFWYRQDPGLGLRLIYFSYDVKMKEKGDIPEGYSVSREKKERFSLILESASTNQTSMYLCASRGLAGYEQYFGPGTRLTVT |
| no recognition | no recognition | recognises | TCR 1705 (TCR, V domains shown) Valpha: QKEVEQDPGPLSVPEGAIVSLNCTYSNSAFQYFMWYRQYSRKGPELLMYTYSSGNKEDGRFTAQVDKSSKYISLFIRDSQPSDSATYLCAMSDTGNQFYFGTGTSLTVIP Vbeta: AAGVIQSPRHLIKEKRETATLKCYPIPRHDTVYWYQQGPGQDPQFLISFYEKMQSDKGSIPDRFSAQQFSDYHSELNMSSLELGDSALYFCASSFRGGGANVLTFGAGSRLTVL |

Source: US20230025572A1 (published 2023)
